Results: US20180186877A1 (NATIONAL CEREBRAL AND CARDIOVASCULAR CENTER, published 2018)

Target: Epitope-tagged recombinant LOX-1 protein (NM002543, aa 61-273, 6xHis); pcDNA4, Igk secretion signal; secreted … (UniProt P78380 61-273)
Assay: SPR (Biacore), FVa immobilised on the chip, LOX-1 0-400 nM flowed; equilibrium (Req) analysis
Experimental: Note that the Igκ secretion signal was obtained by pSecTag/FRT/V5-HisTOPO (Invitrogen). […] The surface plasmon resonance was performed using Biacore (manufactured by GE Healthcare, Inc.).

Kd: 0.0221 µM
B1: Human Factor Va (HCVA-0110, Haematologic Technologies Inc.) (other)
H chain: AQLRQFYVAAQGISWSYRPEPTNSSLNLSVTSFKKIVYREYEPYFKKEKPQSTISGLLGPTLYAEVGDIIKVHFKNKADKPLSIHPQGIRYSKLSEGASYLDHTFPAEKMDDAVAPGREYTYEWSISEDSGPTHDDPPCLTHIYYSHENLIEDFNSGLIGPLLICKKGTLTEGGTQKTFDKQIVLLFAVFDESKSWSQSSSLMYTVNGYVNGTMPDITVCAHDHISWHLLGMSSGPELFSIHFNGQVLEQNHHKVSAITLVSATSTTANMTVGPEGKWIISSLTPKHLQAGMQAYIDIKNCPKKTRNLKKITREQRRHMKRWEYFIAAEEVIWDYAPVIPANMDKKYRSQHLDNFSNQIGKHYKKVMYTQYEDESFTKHTVNPNMKEDGILGPIIRAQVRDTLKIVFKNMASRPYSIYPHGVTFSPYEDEVNSSFTSGRNNTMIRAVQPGETYTYKWNILEFDEPTENDAQCLTRPYYSDVDIMRDIASGLIGLLLICKSRSLDRRGIQRAADIEQQAVFAVFDENKSWYLEDNINKFCENPDEVKRDDPKFYESNIMSTINGYVPESITTLGFCFDDTVQWHFCSVGTQNEILTIHFTGHSFIYGKRHEDTLTLFPMRGESVTVTMDNVGTWMLTSMNSSPRSKKLRLKFRDVKCIPDDDEDSYEIFEPPESTVMATRKMHDRLEPEDEESDADYDYQNRLAAALGIR
L chain: SNNGNRRNYYIAAEEISWDYSEFVQRETDIEDSDDIPEDTTYKKVVFRKYLDSTFTKRDPRGEYEEHLGILGPIIRAEVDDVIQVRFKNLASRPYSLHAHGLSYEKSSEGKTYEDDSPEWFKEDNAVQPNSSYTYVWHATERSGPESPGSACRAWAYYSAVNPEKDIHSGLIGPLLICQKGILHKDSNMPMDMREFVLLFMTFDEKKSWYYEKKSRSSWRLTSSEMKKSHEFHAINGMIYSLPGLKMYEQEWVRLHLLNIGGSQDIHVVHFHGQTLLENGNKQHQLGVWPLLPGSFKTLEMKASKPGWWLLNTEVGENQRAGMQTPFLIMDRDCRMPMGLSTGIISDSQIKASEFLGYWEPRLARLNNGGSYNAWSVEKLAAEFASKPWIQVDMQKEVIITGIQTQGAKHYLKSCYTTEFYVAYSSNQINWQIFKGNSTRNVMYFNGNSDASTIKENQFDPPIVARYIRISPTRAYNRPTLRLELQGCEVNGCSTPLGMENGKIENKQITASSFKKSWWGDYWEPFRARLNAQGRVNAWQAKANNNKQWLEIDLLKIKKITAIITQGCKSLSSEMYVKSYTIHYSEQGVEWKPYRLKSSMVDKIFEGNTNTKGHVKNFFNPPIISRFIRVIPKTWNQSIALRLELFGCDIY
modifications: Two-chain, plasma-derived glycoprotein. The H and L chains are held together non-covalently through Ca2+. Glycosylation and tyrosine sulfation are not carried by the letters.
notes: also called FVa
